Patent US20030049255A1 (published 2003)
One block for each molecule: values may come before it.

B1: recombinant human type II IL-1R:Fc (Fc fusion)
chain: FTLQPAAHTGAARSCRFRGRHYKREFRLEGEPVALRCPQVPYWLWASVSPRINLTWHKNDSARTVPGEEETRMWAQDGALWLLPALQEDSGTYVCTTRNASYCDKMSIELRVFENTDAFLPFISYPQILTLSTSGVLVCPDLSEFTRDKTDVKIQWYKDSLLLDKDNEKFLSVRGTTHLLVHDVALEDAGYYRCVLTFAHEGQQYNITRSIELRIKKKKEETIPVIISPLKTISASLGSRLTIPCKVFLGTGTPLTTMLWWTANDTHIESAYPGGRVTEGPRQEYSENNENYIEVPLIFDPVTREDLHMDFKCVVHNTLSFQTLRTTVKE
notes: also called human IL-1RII:Fc; soluble recombinant human type II IL 1R:Fc; not shown: Fc portion of human IgG
B4: human IL-1α (ligand, UniProt P01583 113-271, looked up)
chain: SAPFSFLSNVKYNFMRIIKYEFILNDALNQSIIRANDQYLTAAALHNLDEAVKFDMGAYKSSKDDAKITVILRISKTQLYVTAQDEDQPVLLKEMPEIPKTITGSETNLLFFWETHGTKNYFTSVAHPNLFIATKQDYWVCLAGGPPSITDFQILENQA
notes: also called IL-1 alpha

How the values were obtained:
[1] = biological target: recombinant rhesus IL-1α (rhesus) (UniProt P48089); experiment: cell-based or functional assay
[2] = biological target: recombinant rhesus IL-1β (rhesus) (UniProt P48090); experiment: cell-based or functional assay
Chain of recombinant rhesus IL-1β (rhesus) (P48090 117-269 limits assumed): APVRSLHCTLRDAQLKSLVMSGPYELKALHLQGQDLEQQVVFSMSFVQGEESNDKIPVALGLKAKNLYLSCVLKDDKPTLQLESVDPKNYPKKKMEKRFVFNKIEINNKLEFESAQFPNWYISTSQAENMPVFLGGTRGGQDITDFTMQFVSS

[3] = biological target: cynomolgus IL-1β (cynomolgus macaque) (UniProt P79182); experiment: SPR, BIACORE 3000, both Fc fusions captured, ligand in flow
Chain of cynomolgus IL-1β (cynomolgus macaque) (P79182 117-268 limits assumed): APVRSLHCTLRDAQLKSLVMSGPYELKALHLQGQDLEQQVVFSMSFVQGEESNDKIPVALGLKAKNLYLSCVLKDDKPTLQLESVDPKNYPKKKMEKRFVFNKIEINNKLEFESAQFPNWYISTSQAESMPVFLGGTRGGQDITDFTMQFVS

human IL-1α = biological target: B4; experiment: SPR, BIACORE 3000, receptor:Fc captured on anti-human IgG Fc, ligand in flow, 25 C, without IL-1AcP
Description: (§1) The relative ability of purified soluble type II IL-1R to bind IL-1α, IL-1β and IL-1ra was measured using a BIACORE 3000 instrument with a research grade CM5 sensor chip at 25 degrees C. Soluble recombinant human type II IL-1R was fused to the Fc portion of human IgG so that the resulting type II IL-1R:Fc construct could be bound to a goat anti-human IgG, Fc chain-specific antibody immobilized to the chip using standard amine coupling chemistry. A similar construct was made using IL-1AcP for the same reason. When IL-1AcP:Fc was used in combination with type II IL-1R:Fc, it was mixed in a 1:1 molar ratio before injection into the BIACORE 3000. Kinetic data were obtained by running a range of concentrations of IL-1α, IL-1β, and IL-1 ra over a flow cell that contained receptor bound to immobilized antibody, and a reference cell of immobilized antibody alone. […] In the presence of human IL-1AcP:Fc, the apparent equilibrium binding constants of human type II IL-1R:Fc for human IL-1α and IL-1β were increased >100-fold over those measured in the absence of human IL-1AcP. Human IL-1AcP:Fc slowed the dissociation rates of both ligands by 100-fold. In contrast, human IL-1AcP:Fc had little effect on the affinity of human IL-1RII:Fc for human IL-1ra. In the absence of receptor, no binding of human IL-1α, IL-1β, and IL-1ra to human IL-1AcP:Fc was detected.

[4] = biological target: B1; experiment: SPR, BIACORE 3000, receptor:Fc captured, ligand in flow, without cynomolgus IL-1AcP
[5] = biological target: T1, recombinant human IL-1 receptor Accessory Protein (AcP):Fc (human, UniProt Q9NPH3 21-359); experiment: SPR, BIACORE 3000, Fc fusion captured on anti-human IgG Fc, ligand in flow
T1 construct: also called human IL-1AcP:Fc; soluble recombinant human IL-1AcP:Fc
T1 sequence: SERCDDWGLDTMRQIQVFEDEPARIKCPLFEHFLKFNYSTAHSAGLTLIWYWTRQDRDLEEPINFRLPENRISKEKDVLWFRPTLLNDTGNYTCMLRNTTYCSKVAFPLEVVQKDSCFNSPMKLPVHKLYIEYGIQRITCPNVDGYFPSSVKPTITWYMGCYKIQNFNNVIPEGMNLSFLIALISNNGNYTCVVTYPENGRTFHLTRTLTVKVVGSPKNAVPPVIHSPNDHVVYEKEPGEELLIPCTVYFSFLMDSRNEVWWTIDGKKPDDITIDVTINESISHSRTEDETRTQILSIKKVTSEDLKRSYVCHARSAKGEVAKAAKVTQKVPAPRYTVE
Description: as §1

NF-κB luciferase reporter activity in COS7 cells [1]: 25 times
NF-κB luciferase reporter activity in COS7 cells [2]: 25 fold
Molecule: soluble IL-1R Type II in the presence of IL-1RAcP (from UniProt P27930 14-343; Q9NPH3 21-367)

Ka [3]: 1.8e+08 M⁻¹
fold increase of apparent affinity over that without IL-1AcP [3]: > 100 fold
Molecule: human type II IL-1R:Fc in the presence of cynomolgus IL-1AcP:Fc (from UniProt A0A7N9CMI5 18-336)

Molecule: B1
fold lower affinity than for human IL-1β (human IL-1α): 100 fold

Ka [4]: 6.2e+07 M⁻¹
B2: cynomolgus IL-1ra (ligand, cynomolgus macaque, UniProt Q866R8 26-177, looked up)
chain: RPSGRKPSKMQAFRIWDVNQKTFYLRNNQLVAGYLQGPNVNLEEKIDVVPIEPHALFLGIHGGKMCLSCVKSGDETRLQLEAVNITDLSKNRKQDKRFAFVRSDSGPTTSFESAACPGWFLCTAMEADQPVSLTNMPDKGVMVTKFYFQEDE
notes: also called cynomolgus macaque IL-1 receptor antagonist

Ka [4]: 1.4e+06 M⁻¹
B3: cynomolgus IL-1α (ligand, cynomolgus macaque, UniProt P79340 113-271, looked up)
chain: SAPFSFLSNMTYHFIRIIKHEFILNDTLNQTIIRANDQYLTAAAIHNLDEAVKFDMGAYTSSKDDTKVPVILRISKTQLYVSAQDEDQPVLLKEMPEIPKTITGSETNFLFFWETHGTKNYFISVAHPNLFIATKHDNWVCLAKGLPSITDFQILENQA
notes: also called cynomolgus macaque IL-1α

Molecule: B4
binding result [5]: no binding
